Key:
Assay in all cases: BLI (Octet), biotinylated mAb on streptavidin sensors, culture supernatant
[1] = target: T1, RSV181177, non-stabilized RSV F B consensus soluble polypeptide with foldon and C-tag (respiratory syncytial virus, subgroup B …, UniProt O36634 26-109; O36634 137-540)
T1 construct: Measured in crude culture supernatant, no furin co-transfection; processing may be incomplete; End 551 is the end of the entry as counted; also called non-stabilized RSV F type B; non-stabilized F
T1 chain 1: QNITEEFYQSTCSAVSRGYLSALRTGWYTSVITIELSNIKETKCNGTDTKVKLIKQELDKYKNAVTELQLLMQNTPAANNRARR
T1 chain 2: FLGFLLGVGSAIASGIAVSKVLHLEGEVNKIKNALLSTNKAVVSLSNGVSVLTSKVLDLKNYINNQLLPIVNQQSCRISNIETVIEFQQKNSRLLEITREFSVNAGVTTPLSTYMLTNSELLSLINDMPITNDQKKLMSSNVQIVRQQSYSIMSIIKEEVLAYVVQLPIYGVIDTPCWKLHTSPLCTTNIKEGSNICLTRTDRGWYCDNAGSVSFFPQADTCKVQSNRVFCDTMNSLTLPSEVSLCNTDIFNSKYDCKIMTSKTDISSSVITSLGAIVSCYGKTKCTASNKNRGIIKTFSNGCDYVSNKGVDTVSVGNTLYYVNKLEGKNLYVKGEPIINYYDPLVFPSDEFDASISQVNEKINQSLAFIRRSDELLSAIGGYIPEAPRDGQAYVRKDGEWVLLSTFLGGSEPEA
Protocol: (§1) Quantitative Octet (BioLayer Interferometry) was used for measuring protein concentration in the supernatants at day of harvest and after 7 or 30 days storage at 4° C. CR9501 (an antibody specifically recognizing pre-fusion RSV F protein, which comprises the variable regions of the antibodies 58C5 as described in WO2012/006596) and CR9506 (recognizing pre-fusion and post-fusion RSV F protein and comprising a heavy chain variable region comprising SEQ ID NO: 21, and a light chain variable region comprising SEQ ID NO: 22) were biotinylated by standard protocols and immobilized on Streptavidin biosensors (ForteBio, Portsmouth, UK).
(§2) Afterwards, the coated biosensors were blocked in mock cell culture supernatant. A quantitative experiment was performed as follows: temperature 30° C., shaking speed 1000 rpm, time of the assay 300 sec. The concentration of the protein was calculated using a standard curve. The standard curve was prepared for each coated antibody CR9501 and CR9506 using the pre-fusion RSV FA protein (SEQ ID NO: 19; described previously in WO17174568) diluted in mock medium. […] The data analysis was done using the ForteBio Data Analysis 10.0.1.6 software (ForteBio).

[2] = target: T2, RSV181178 (I152M + K226M) (respiratory syncytial virus, subgroup B …, UniProt O36634 26-109; P13843 137-540)
T2 construct: Measured in crude culture supernatant, no furin co-transfection
T2 chain 1: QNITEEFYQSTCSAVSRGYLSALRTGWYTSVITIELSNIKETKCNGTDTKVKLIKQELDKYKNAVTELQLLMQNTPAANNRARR
T2 chain 2: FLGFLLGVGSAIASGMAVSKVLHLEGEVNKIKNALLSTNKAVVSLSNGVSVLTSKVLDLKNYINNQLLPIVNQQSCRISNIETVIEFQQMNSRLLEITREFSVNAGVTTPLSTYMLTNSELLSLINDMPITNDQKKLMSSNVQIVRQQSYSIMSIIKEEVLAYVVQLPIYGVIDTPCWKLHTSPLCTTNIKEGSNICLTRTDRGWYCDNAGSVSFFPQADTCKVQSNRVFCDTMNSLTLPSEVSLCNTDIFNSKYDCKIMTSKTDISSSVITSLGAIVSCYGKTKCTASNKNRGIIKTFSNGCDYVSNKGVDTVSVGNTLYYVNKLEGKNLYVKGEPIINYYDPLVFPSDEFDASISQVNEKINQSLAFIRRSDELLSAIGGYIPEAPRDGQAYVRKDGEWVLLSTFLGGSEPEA
Protocol: as §1, §2

[3] = target: T3, RSV180917 (I152M + K226M + D486N + S215P + L203I + P101Q + D489Y + T357R + N371Y) (respiratory syncytial virus, subgroup B …, UniProt O36634 26-109)
T3 construct: also called RSV181917
T3 chain 1: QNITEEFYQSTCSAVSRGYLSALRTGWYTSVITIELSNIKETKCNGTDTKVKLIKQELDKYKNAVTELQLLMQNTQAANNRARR
T3 chain 2: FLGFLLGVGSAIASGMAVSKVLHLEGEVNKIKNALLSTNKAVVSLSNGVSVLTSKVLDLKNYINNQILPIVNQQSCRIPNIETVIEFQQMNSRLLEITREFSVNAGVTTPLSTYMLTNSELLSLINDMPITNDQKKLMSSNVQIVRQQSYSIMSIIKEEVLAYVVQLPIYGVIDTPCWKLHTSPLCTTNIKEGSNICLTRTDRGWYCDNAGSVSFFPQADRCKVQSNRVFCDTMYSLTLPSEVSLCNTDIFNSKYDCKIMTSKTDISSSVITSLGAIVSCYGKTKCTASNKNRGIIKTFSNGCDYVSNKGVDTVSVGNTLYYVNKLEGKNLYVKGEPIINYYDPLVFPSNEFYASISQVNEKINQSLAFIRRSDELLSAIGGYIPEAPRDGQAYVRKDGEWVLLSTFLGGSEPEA
Protocol: as §1, §2

[4] = target: T4, RSV181181 (I152M + K226M + D486N + S215P + P101Q + D489Y) (respiratory syncytial virus, subgroup B …, UniProt O36634 26-109; P13843 137-540)
T4 chain 1: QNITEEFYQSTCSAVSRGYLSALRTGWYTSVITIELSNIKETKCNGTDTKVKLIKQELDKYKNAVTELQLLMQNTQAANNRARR
T4 chain 2: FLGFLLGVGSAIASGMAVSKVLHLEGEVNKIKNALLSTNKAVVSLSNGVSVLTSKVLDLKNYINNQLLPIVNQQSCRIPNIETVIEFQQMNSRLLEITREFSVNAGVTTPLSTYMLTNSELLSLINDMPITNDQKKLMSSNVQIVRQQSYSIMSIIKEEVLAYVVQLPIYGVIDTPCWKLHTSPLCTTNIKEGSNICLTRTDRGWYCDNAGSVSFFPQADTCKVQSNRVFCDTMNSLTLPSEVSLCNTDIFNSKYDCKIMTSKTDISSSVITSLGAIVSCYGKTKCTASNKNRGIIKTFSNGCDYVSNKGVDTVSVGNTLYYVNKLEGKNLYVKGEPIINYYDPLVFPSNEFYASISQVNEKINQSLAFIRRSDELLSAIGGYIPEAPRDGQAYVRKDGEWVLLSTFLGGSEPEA
Protocol: as §1, §2

Measured: binding result

B1: CR9506 (antibody, human IgG1, kappa, V domains shown)
VH: EVQLVQSGAEVKKPGSSVKVSCKASGGTFSRSLITWVRQAPGQGLEWMGEISLVFGSAKNAQKFQGRVTITADESTSTAHMEMISLKHEDTAVYYCAAHQYGSGTHNNFWDESELRFDLWGQGTLVTVSS
VL: DIVMTQSPSSLSASVGDRVTIACRASQSIGTYLNWYQQKPGKAPKLLIYAASSLQSGVPSRFSGSGSGTHFTLAISSLQAEDFATYSCQQSYTIPYTFGQGTKLEIKR
notes: Biotinylated for Octet; coated and also used HRP-labelled as detection antibody in the ELISA
binds: all assays above

From patent US20240132548A1 (Janssen / Centocor, published 2024)
